Here are results for one molecule from publication PMC6842167 (Retrovirology, 2019).

The target of the assay is T1, Recombinant human two-domain CD4 (Homo sapiens).
T1 construct: also called 2dCD4; N-terminal two domain fragment of human CD4
Put plainly: ELISA; decreasing concentrations of 2dCD4 immobilised directly on a 96 well plate; antibodies at 1 µg/ml; anti-human HRP secondary, absorbance at 450 nm. The note with it: both partners purified.

B1: ibalizumab (antibody, V domains shown)
VH: QVQLQQSGPEVVKPGASVKMSCKASGYTFTSYVIHWVRQKPGQGLDWIGYINPYNDGTDYDEKFKGKATLTSDTSTSTAYMELSSLRSEDTAVYYCAREKDNYATGAWFAYWGQGTLVTVSS
VL: DIVMTQSPDSLAVSLGERVTMNCKSSQSLLYSTNQKNYLAWYQQKPGQSPKLLIYWASTRESGVPDRFSGSGSGTDFTLTISSVQAEDVAVYYCQQYYSYRTFGGGTKLEIK
notes: also called iMab; parental iMab antibody; source: HEK293T, transiently transfected, purified (Protein-A, SEC); copies: + +
For the molecule B1, the binding result is on record as “binds”.
